From PMC2996326, “LaeA Control of Velvet Family Regulatory Proteins for Light-Dependent Development and Fungal Cell-Type Specificity” (PLoS Genetics, 2010)

Molecular target: the molecule itself
Experiment: not stated; VelB heterologously expressed in Escherichia coli; data not shown

B1: VelB expressed in Escherichia coli (natural protein, Aspergillus nidulans, UniProt C8VTS4 1-369, looked up)
chain: MYAVEDRAHSGHHPPPLSMDRIPPPSTMYPSSAGPSAMVSPAGQPEPESLSTVHDGRIWSLQVVQQPIRARMCGFGDKDRRPITPPPCIRLIVKDAQTQKEVDINSLDSSFYVVMADLWNADGTHEVNLVKHSATSPSISTAMSSSYPPPPHPTSSDYPASYQTNPYGQPVGQPVGQPVGYAGVGNYYGGSTQLQYQNAYPNPQAQYYQPMYGGMAQPQMPAAQPVTPGPGGMFTRNLIGCLSASAYRLYDTEDKIGVWFVLQDLSVRTEGIFRLKFSFVNVGKSVSDLPQSDIAEVINKGTAPILASTFSEPFQVFSAKKFPGVIESTPLSKVFANQGIKIPIRKDGVKGQGSRGRHSDEDDGLDNEY
notes: VelB of Aspergillus nidulans, heterologously expressed; construct not described; neither the construct, its tags nor its purification are described; source: heterologous expression in Escherichia coli
  stoichiometry N: 2
